The target in this test is T1, human CD147 (human, UniProt P35613).
T1 chain: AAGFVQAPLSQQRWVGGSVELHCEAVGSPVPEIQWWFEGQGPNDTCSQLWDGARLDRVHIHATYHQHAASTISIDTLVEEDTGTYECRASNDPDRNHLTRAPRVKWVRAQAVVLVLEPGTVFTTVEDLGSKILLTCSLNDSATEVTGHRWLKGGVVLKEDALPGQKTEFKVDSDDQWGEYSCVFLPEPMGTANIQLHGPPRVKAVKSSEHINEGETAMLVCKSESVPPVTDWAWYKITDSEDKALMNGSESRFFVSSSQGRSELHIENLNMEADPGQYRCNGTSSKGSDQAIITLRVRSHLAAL
As to the kind of experiment: ELISA. (An ELISA detects its analyte on a solid surface through an enzyme-linked reagent.)

B1: mouse 3A11 (antibody, V domains shown)
VH: EVQLVESGGGLVQPGGSLRLSCAASGFTFSNYWMDWVRQAPGKGLEWVGEIRLKSYNYATHYAASVKGRFTISRDDSKNSVYLQMNSLKTEDTAVYYCTAAGTDYWGQGTLVTVSS
VL: SIVMTQIPKILLVSAGDRVTITCKASQSVRTDVAWYQQKPGQSPKLLIYYSSNRYTGVPDRFTGSGYGTDFTFTISTVQAEDLAVYFCQQDYSSPFTFGSGTKLEIK
Regarding B1, the affinity, expressed as Kd, was 0.293 nM.

The record behind these values is patent publication US20180303952 (published 2018).
